What all share (test): ITC; secretagogin construct in the cell (10-100 µM), partner in the syringe (80-1500 µM); 25 mM HEPES pH 8.0, 150 mM NaCl, 2 mM CaCl2; 20 °C; MicroCal iTC200; single-site binding model
A general note: Isothermal titration calorimetry measures the heat released or taken up as one component is titrated into another.

Assay [1] addresses mouse secretagogin (mouse) (UniProt Q91WD9).
Assay [2] has as its target mouse secretagogin M229A (mouse) (UniProt Q91WD9).
In assay [3] the target is mouse secretagogin M229E (mouse) (UniProt Q91WD9).
Assay [4] concerns the target mouse secretagogin V233A (mouse) (UniProt Q91WD9).
Assay [5] has as its target mouse secretagogin R198A (mouse) (UniProt Q91WD9).
For assay [6], the target named is mouse secretagogin L270A (mouse) (UniProt Q91WD9).
Chain of mouse secretagogin L270A (mouse) (Q91WD9 whole entry L270A): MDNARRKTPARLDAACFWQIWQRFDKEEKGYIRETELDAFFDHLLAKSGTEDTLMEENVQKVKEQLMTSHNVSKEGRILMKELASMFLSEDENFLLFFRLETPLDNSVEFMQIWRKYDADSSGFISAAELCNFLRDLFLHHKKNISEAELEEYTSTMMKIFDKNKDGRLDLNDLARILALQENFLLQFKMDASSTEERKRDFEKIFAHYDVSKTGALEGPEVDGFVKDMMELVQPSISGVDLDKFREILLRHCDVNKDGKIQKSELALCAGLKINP

Chain of mouse secretagogin (mouse) (Q91WD9 whole entry): as the sequence (Q91WD9 whole entry L270A) above, with A270L counted along it
Chain of mouse secretagogin M229E (mouse) (Q91WD9 whole entry M229E): as the sequence (Q91WD9 whole entry L270A) above, with M229E, A270L counted along it
Chain of mouse secretagogin V233A (mouse) (Q91WD9 whole entry V233A): as the sequence (Q91WD9 whole entry L270A) above, with V233A, A270L counted along it
Chain of mouse secretagogin R198A (mouse) (Q91WD9 whole entry R198A): as the sequence (Q91WD9 whole entry L270A) above, with R198A, A270L counted along it
Chain of mouse secretagogin M229A (mouse) (Q91WD9 whole entry M229A): as the sequence (Q91WD9 whole entry L270A) above, with M229A, A270L counted along it

“Habc domain of mouse syntaxin-4, His6-tagged (from UniProt P70452 1-298) (domain or fragment)”: in assay [1], the Kd was 14.1 µM.

As for “Ha helix of the Habc domain of mouse syntaxin-4, His6-tagged (from UniProt P70452 1-298) (domain or fragment)”, in assay [1], the dissociation constant (Kd) came to 6.67 µM.

In the case of “Hb helix of the Habc domain of mouse syntaxin-4, His6-tagged (domain or fragment)”, the Kd worked out at 1.62 µM in assay [2]; 5.21 µM in assay [3]; 0.125 µM in assay [4]; 0.808 µM in assay [5]; 16.2 µM in assay [6].

What is called Kd is the free concentration of one partner at which half of the binding sites on the other are occupied at equilibrium, for simple one-to-one binding. High values mean weaker binding, low ones tighter binding.

These data come from paper PMC11032447.
